Measured values taken from the nanobody polyreactivity screen of Harvey et al. (2022).

Experiment: yeast display, Sf9 membrane polyspecificity reagent, FACS + sequencing; frameworks hold sequencing errors
In short: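 Genes from sorted yeast were amplified by colony PCR, read by MiSeq 2 × 250 sequencing and filtered on CDR length. These cells carried a synthetic nanobody library in Saccharomyces cerevisiae BJ5465 and were sorted by FACS into low and high (top ~1%) gates on anti-HA and streptavidin fluorescence. Polyreactivity is labelled according to the gate of origin.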

**Q.** For “QVQLVESGGGLVQAGGSLRLSCAASGFIIIGYVMGWYRQSPGKERELVAAITSSVGSTYYADSVKGRFTISRDNAKNPVYLQMNSLKPEDTAVYYCAAEYYLLWSGMEYWGEGTQVTVSS”, which “polyreactivity (PSR sort gate)” value is on record?
**A.** The value was “low polyreactivity”.

**Q.** Which “polyreactivity (PSR sort gate)” value does the source give for “QVQLVESGGGLVQAGGSLRLSCAASGFIILINVMGWYRQAPGKERELVAVITGGGTTNYADSVKGRFTFSRDNAKNTVYLQMNSLKPEDTAVYYCAVDAGAGDNDYWGQGTQVTVSS” here?
**A.** The value was “low polyreactivity”.

**Q.** For “QVQLVESGGGLVQAGGSLRLSCAASGFIIRKYAMGWYRPAPGKEWELVAAISGRADSTYYADSVKGRFTISRDNAKNTVYLQMNSLKPDDTAVYYCAAYWHSKIGKGYDYWGQGTQVTVSS”, which “polyreactivity (PSR sort gate)” value is on record?
**A.** Its value is “high polyreactivity”.

**Q.** For “QVQLVESGGGLVQAGGSLRLSCAASGFIISVYAMGWYRQAPGKERELVARIDSGGSTYYADSVKGRFTISRDNAKNTVYLQMNSLKPEDTAVYYCATDEGTVGGQQLRPLMDYWGQGTQVTVSS”, which “polyreactivity (PSR sort gate)” value is on record?
**A.** Its value is “low polyreactivity”.

**Q.** For “QVQLVESGGGLVQAGGSLRLSCAASGFIITGNAMGWYRKAPGKERELVAAITSGGNTYYADSVKGRFTISRDNAKNTVYLQMNSLKPEDTAVYYCAKYVPHWRILMEYWGQGTQVTVSS”, which “polyreactivity (PSR sort gate)” value is on record?
**A.** Its value is “low polyreactivity”.

**Q.** For “QVQLVESGGGLVQAGGSLRLSCAASGFIITQSAMGWYRQAPGTERELVAAISGNGGRTYYADSVKGRFTISRDNAKNTVYLQMNSLKPEDTAVYYCAVTRPGRRYPFCYDYWGQGTQVTVSS”, which “polyreactivity (PSR sort gate)” value is on record?
**A.** The value was “low polyreactivity”.

**Q.** For “QVQLVESGGGLVQAGGSLRLSCAASGFIIVKYAMGWYRQAPGKERELVAAITRGGRTYYADSVKGRFTISRDNAKNTVYLQMNSLKPEDTAVYYCNKARFYDPWLGKYGYKYDYWGQGTQVTVSS”, which “polyreactivity (PSR sort gate)” value is on record?
**A.** Its value is “high polyreactivity”.

**Q.** Which “polyreactivity (PSR sort gate)” value does the source give for “QVQLVESGGGLVQAGGSLRLSCAASGFIIVRYAMGWYRQAPGKERELVAAITRSGGSTYYADSVKGRFTISRDNAKNTVYLQMNSLKPEDTAVYYCNAYRQGFTYARMDYWGQGTQVTVSS” here?
**A.** Its value is “high polyreactivity”.

**Q.** Which “polyreactivity (PSR sort gate)” value does the source give for “QVQLVESGGGLVQAGGSLRLSCAASGFIIVRYAMGWYRQAPGKERELVASITKSGGSTYYADSVKGRFTISRDNAKNTVYLQMNSLKPEDTAVYYCAATVVSRTRYYYRGQRYDYWGQGTQVTVSS” here?
**A.** The value was “high polyreactivity”.

**Q.** For “QVQLVESGGGLVQAGGSLRLSCAASGFIIVYYAMGWYRQAPGKERELVAAISRSGGSTYYADSVKGRFTISRDNAKNTVYLQMNSLKPEDTAVYYCNAVNVLAPSRGRRYDYWGEGTQVTVSS”, which “polyreactivity (PSR sort gate)” value is on record?
**A.** Its value is “high polyreactivity”.

**Q.** Which “polyreactivity (PSR sort gate)” value does the source give for “QVQLVESGGGLVQAGGSLRLSCAASGFIIYGYVMGWYRQAPGKERELVAAINSSSGRTYYADSVKGRFTISRDNAKNTVYLQMKSLKPEDTAVYYCAAYYYGSYDGTPYDYWGQGTQVTVSS” here?
**A.** Its value is “low polyreactivity”.

**Q.** With “QVQLVESGGGLVQAGGSLRLSCAASGFIIYKYAMGWYRQAPGKERELVAAISWSGGSTYYADSVKGRFTISRDNAKNTVYFQMNSLKPEDTAVYYCAARQWSQGWYDYWGQGTQVTVSS” as the sequence, how does the “polyreactivity (PSR sort gate)” value read?
**A.** The value was “high polyreactivity”.

**Q.** For “QVQLVESGGGLVQAGGSLRLSCAASGFILARYAMGWYRQAPGKERELVAVISSGGSSTFYADSVKGRFTISRDNAKNTVYLQMNSLKPEDTAVYYCAARYKSSKKVGFDYWGQGTQVTVSS”, which “polyreactivity (PSR sort gate)” value is on record?
**A.** The value was “high polyreactivity”.

**Q.** For “QVQLVESGGGLVQAGGSLRLSCAASGFILDNYAMGWYRQAPGKERELVAAISGSGGSTFYADSVKGRFTISRDNAKNTVYLQMNSLKSEDTAVYYCNRDRLLRQYDYWGQGTQVTVSS”, which “polyreactivity (PSR sort gate)” value is on record?
**A.** Its value is “high polyreactivity”.

**Q.** For “QVQLVESGGGLVQAGGSLRLSCAASGFILDTYGMGWYRQAPGKERELVAAISQSDVSTYYADSVKGRFTISRYNAKNTVYLQMNSLKPEDTAVYYCAADRAGLRWFWQVLYDYWGQGTQVTVSS”, which “polyreactivity (PSR sort gate)” value is on record?
**A.** The value was “low polyreactivity”.

**Q.** For “QVQLVESGGGLVQAGGSLRLSCAASGFILGLNAMGWYRQAPGKEREFVADISWSGDSTYYADSVKGRFTISRDNAKNTVYLQMNSLKPEDTAVYYCAADPYYNWCYYYWGQGTQVTVSS”, which “polyreactivity (PSR sort gate)” value is on record?
**A.** The value was “low polyreactivity”.

**Q.** With “QVQLVESGGGLVQAGGSLRLSCAASGFILGQYAMGWYRQAPGKERELVAAISGSSSTTYADCVKGRFTISRDNAKNTVYLQMNSLKPEDTAVYYCAAYYWYVTYFRREIAYEYWGQGTQVTVSS” as the sequence, how does the “polyreactivity (PSR sort gate)” value read?
**A.** The value was “low polyreactivity”.

**Q.** For “QVQLVESGGGLVQAGGSLRLSCAASGFILGWYAMGWYRQAPGKERELVADISASGTRTYYADSVKGRFTISRDNAKNTVYLQMNSLKPEDTAVYYCNVYTKFVYAYDYWGQGTQVTLSS”, which “polyreactivity (PSR sort gate)” value is on record?
**A.** The value was “high polyreactivity”.

**Q.** For “QVQLVESGGGLVQAGGSLRLSCAASGFILGYNAMGWYRQAPGKERELVADITFSGGGTNYADSVKGRFTISRDNAKNTVYLQMNSLKPEDTAVYYCNAAAFSQLRVRYDYWGQGTQVTVSS”, which “polyreactivity (PSR sort gate)” value is on record?
**A.** The value was “low polyreactivity”.

**Q.** For “QVQLVESGGGLVQAGGSLRLSCAASGFILKYNAMGWYRQAPGKERELVAAISSNGGRTYYADSVKVRFTISRDNAKNTVYLQMKSLKPEDTAVDYCAAGRLQPVLGGYWGQGSQVTVSS”, which “polyreactivity (PSR sort gate)” value is on record?
**A.** Its value is “low polyreactivity”.

**Q.** For “QVQLVESGGGLVQAGGSLRLSCAASGFILKYYAMGWYRQAHGKERELVAAITVSGGSTYYADSVKGRFTISRDNAKNTFYLQMNSLKPEDTAVYYCNADYPRGGAGLLDYWGQGTQVTVSS”, which “polyreactivity (PSR sort gate)” value is on record?
**A.** The value was “low polyreactivity”.

**Q.** With “QVQLVESGGGLVQAGGSLRLSCAASGFILPHNAMGWYRQAPGKERELVAAISGSGGSTYYADSVKGRFTISRDNAKNTVYLQMNSLKPEDTAFYYCNADVWVYPYDYWGQGTQVTVSS” as the sequence, how does the “polyreactivity (PSR sort gate)” value read?
**A.** The value was “low polyreactivity”.

**Q.** For “QVQLVESGGGLVQAGGSLRLSCAASGFILRYYAMGWYRPAPGNERELVAAISSGGGTYYADSVKGRFTISRDNAKNTVYLQMNSLKPEDTAVYYCNKASTSYYRFNYWGQGTQVTVSS”, which “polyreactivity (PSR sort gate)” value is on record?
**A.** The value was “high polyreactivity”.

**Q.** Which “polyreactivity (PSR sort gate)” value does the source give for “QVQLVESGGGLVQAGGSLRLSCAASGFILSNYAMGWYRQAPGKERELVAAIRWSGGSTYYADSVKGRFTISRDYAKNTVYLQMNSLKPEDTAVYYCNKVRPFSWYGLDYWGQGTQVTVSS” here?
**A.** Its value is “high polyreactivity”.

**Q.** With “QVQLVESGGGLVQAGGSLRLSCAASGFILSPNTMGWYRPAPGKERELVAAISTDVSTYADSVKGRFTISRDNAKNTVYFQMNSLKPEDTAVYYCNADDFGYASYEYWGQGTQVTVSS” as the sequence, how does the “polyreactivity (PSR sort gate)” value read?
**A.** The value was “low polyreactivity”.

**Q.** For “QVQLVESGGGLVQAGGSLRLSCAASGFILYDYAMGWYRQAPGKEREFVAAISWSGGRTYYADSVKGRFTISRDNAKNTVYLLLNSLNPEASAVYYCAVDAYRYWWTTYVSDFDYWGQGTQLTVSS”, which “polyreactivity (PSR sort gate)” value is on record?
**A.** Its value is “high polyreactivity”.

**Q.** With “QVQLVESGGGLVQAGGSLRLSCAASGFILYSYAMGWSRQAPGKEREFVSVISRGGGRTYYADSVKGRFTISRDNAKNTVYLQMNSLKPEDTAVYYCAAGSRSPHWYTRELDYWGQGTQVTVSS” as the sequence, how does the “polyreactivity (PSR sort gate)” value read?
**A.** The value was “low polyreactivity”.

**Q.** With “QVQLVESGGGLVQAGGSLRLSCAASGFILYYYAMGWSRQAPGKERELVAAISWSGDSTYYADSVKGRFTISRDNAKNTVYLQMNSLKPEDTAVYYCAATWQLTHRYYWGQGTQVTVSS” as the sequence, how does the “polyreactivity (PSR sort gate)” value read?
**A.** Its value is “low polyreactivity”.

**Q.** For “QVQLVESGGGLVQAGGSLRLSCAASGFISAGYAMGWYRQAPGKERELVAAITRTGSTNYADSVKGRFTISRDNAKNTVYLQMNSLKPEDTAVYYCAAGRRGSAGYYRQFGYGYWGQGTQVTVSS”, which “polyreactivity (PSR sort gate)” value is on record?
**A.** Its value is “high polyreactivity”.

**Q.** Which “polyreactivity (PSR sort gate)” value does the source give for “QVQLVESGGGLVQAGGSLRLSCAASGFISAYNAMGWYRPAPGKERELVAAITSGATTKYADSVKGRFTISRDNAKNTVYFQMHSLKPEDTAVYYCAAAPKRRYYVHSGGAYGYWGQGTQVTVSS” here?
**A.** Its value is “high polyreactivity”.

**Q.** With “QVQLVESGGGLVQAGGSLRLSCAASGFISDVYAMGCYRQAPGKERELVAVITWRGSTYYAYSVKGRFTISRDNAKNTVYLQMNSLKPEDTAVYYCAAESQGDWAFDYWGQGTQVTVSS” as the sequence, how does the “polyreactivity (PSR sort gate)” value read?
**A.** Its value is “low polyreactivity”.
